Data reported in patent publication US20160199445A1 (CENTRE NATIONAL DE LA RECHERCHE SCIENTIFIQUE, published 2016).

Molecular target: T1, Purified Arp2/3 complex
T1 construct: Used in fluorescence anisotropy, pyrene-actin and TIRF assays
Test: fluorescence anisotropy, competition with labelled ArpinA bound to purified Arp2/3 complex

- Kd: 1030 nM
B1: ArpinA peptide (residues 211-226 of full length Arpin), unlabelled synthetic peptide (peptide)
peptide: EIREQGDGAEDEEWDD
notes: Purchased from Proteogenix; also called Arpin Acidic peptide; Acidic peptide
